Consider 1 molecule from article PMC4141198, “The conserved ubiquitin-like protein Hub1 plays a critical role in splicing in human cells” (Journal of Molecular Cell Biology, 2014).

The target in this assay is T1, 6xHis-tagged human Hub1 (human, UniProt Q9BZL1 1-73).
T1 construct: human Hub1 (UBL5) expressed from pET28a; also called UBL5; purified Hub1; source: E. coli BL21-CodonPlus (DE3)-RIL, purified (Ni-NTA, Superdex 75)
T1 sequence: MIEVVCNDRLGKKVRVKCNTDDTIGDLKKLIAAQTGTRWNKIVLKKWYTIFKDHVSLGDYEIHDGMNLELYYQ
Description: crystal structure; Hub1 mixed with the HIND peptide at a molar ratio of 1:3, complex separated on Superdex 75; crystals at 20°C in 0.1 M Tris/HCl pH 9.0, 0.15 M sodium acetate, 20% PEG 4000; 2.0 Å. As to conditions: both partners purified.

B1: hSnu66 HIND peptide (residues 117-135) (peptide)
peptide: SLSIEETNKLRAKLGLKPL
notes: residues 117-135 of human Snu66 (SART1), the single HIND element; source: synthetic peptide
Regarding B1, the binding result is reported as “binds”.
